Data set [1] deals with the molecule itself. The experiment in a line: dynamic light scattering; pH 7.4; protein 2 mg/ml, 25 °C; hydrodynamic diameter and volume fraction (Zetasizer).
Data set [2] concerns the molecule itself. Nature of the data set: native gel or EMSA; native-PAGE at neutral pH: 50 mM Tris-HCl, 100 mM NaCl pH 7.4, running buffer 35 mM Hepes, 43 mM imidazole pH 7.4; continuous 7.5% gel, non-reducing, non-denaturing; markers BSA and ferritin.
Data set [3] concerns the molecule itself. The experiment in a line: native gel or EMSA; native-PAGE at low pH: 40 mM Na-acetate pH 4, running buffer 30 mM beta alanine, 20 mM lactic acid pH 3.8, reverse polarity; continuous 7.5% gel, non-reducing, non-denaturing; markers BSA and ferritin. (In general: Mobility shift assays separate free from complexed probe on a gel.)

Changes are numbered by the printed parent chain. Names may count otherwise.

The stoichiometry N is the number of molecules, sites or subunits per partner or assembly.

B1: Peroxiredoxin 6 (Prdx6), recombinant rat wild type (enzyme, UniProt O35244 1-224, looked up)
chain: MPGGLLLGDEAPNFEANTTIGHIRFHDFLGDSWGILFSHPRDFTPVCTTELGRAAKLAPEFAKRNVKLIALSIDSVEDHFAWSKDINAYNGAAPTEKLPFPIIDDKDRDLAILLGMLDPAEKDEKGMPVTARVVFIFGPDKKLKLSILYPATTGRNFDEILRVVDSLQLTASNPVATPVDWKKGESVMVLPTLPEEEAKQLFPKGVFTKELPSGKKYLRYTPQP
notes: Peroxiredoxin 6 (Prdx6), rat, wild type; cloned between the NdeI and SapI sites of pTYB1; no extra residues remain after intein self-cleavage; also called Wt Prdx6; WT Prdx6
As to B1, the “stoichiometry N” value in data set [1] was determined as 2.

B2: H79A Prdx6 (His79 to Ala mutant of rat Prdx6) (enzyme, UniProt O35244 1-224, looked up)
chain: B1 chain with H79A
notes: Peroxiredoxin 6 (Prdx6), rat, with His79 replaced by Ala (QuikChange mutagenesis); Same construct as m1 with the point mutation; also called His79A; His79-Ala
As to B2, the results for the “stoichiometry N” value in data set [2] and in data set [3] were 2 and approximately 2, respectively.

B3: D42A Prdx6 (Asp42 to Ala mutant of rat Prdx6) (enzyme, UniProt O35244 1-224, looked up)
chain: B1 chain with D42A
notes: Peroxiredoxin 6 (Prdx6), rat, with Asp42 replaced by Ala (QuikChange mutagenesis); the methods print it once as Asp43Ala; Same construct as m1 with the point mutation; also called Asp42A; Asp42-Ala
Take B3: the “stoichiometry N” value in data set [2] was 2; in data set [3] it was approximately 2.

(Values after article PMC11703348, “Role of Aspartate 42 and Histidine 79 in the aiPLA2 activity and oligomeric status of Prdx6 at low pH” (Research Square, 2024).)
